Changes are numbered by the printed parent chain. One block for each binder: values may come before it.
Key:
[1] = target: T1, GPC3 peptide on HLA-A*24:02 (human); assay: multimer staining
T1 peptide: EYILSLEEL

[2] = target: T2, FOXM1 peptide on HLA-A*24:02 (human); assay: multimer staining
T2 peptide: IYTWIEDHF

[3] = target: T1, GPC3 peptide on HLA-A*24:02; assay: cytokine release
[4] = target: T3, GPC3 peptide on HLA-A2 (human); assay: multimer staining
T3 peptide: FVGEFFTDV

[5] = target: EPHB4 peptide on HLA-A*02:01 (human); assay: activation reporter or marker

B1: i3C2 (TCR, V domains shown)
Valpha: GQNIDQPTEMTATEGAIVQINCTYQTSGFNGLFWYQQHAGEAPTFLSYNVLDGLEEKGRFSSFLSRSKGYSYLLLKELQMKDSASYLCAVRVWKAAGNKLTFGGGTRVLVKP
Vbeta: GAVVSQHPSWVICKSGTSVKIECRSLDFQATTMFWYRQFPKQSLMLMATSNEGSKATYEQGVEKDKFLINHASLTLSTLTVTSAHPEDSSFYICSARRLAGGGNEQFFGPGTRLTVL
binding result [1]: recognises

B2: ②1E7 (TCR, V domains shown)
Valpha: AQSVSQHNHHVILSEAASLELGCNYSYGGTVNLFWYVQYPGQHLQLLLKYFSGDPLVKGIKGFEAEFIKSKFSFNLRKPSVQWSDTAEYFCAVRHGGTGTASKLTFGTGTRLQVTL
Vbeta: GAVVSQHPSWVICKSGTSVKIECRSLDFQATTMFWYRQFPKQSLMLMATSNEGSKATYEQGVEKDKFLINHASLTLSTLTVTSAHPEDSSFYICSARALGGYTFGSGTRLTVV
binding result [2]: recognises

B3: (46)2A6 (TCR, V domains shown)
Valpha: RKEVEQDPGPFNVPEGATVAFNCTYSNSASQSFFWYRQDCRKEPKLLMSVYSSGNEDGRFTAQLNRASQYISLLIRDSKLSDSATYLCKISGGYNKLIFGAGTRLAVHP
Vbeta: DSGVTQTPKHLITATGQRVTLRCSPRSGDLSVYWYQQSLDQGLQFLIQYYNGEERAKGNILERFSAQQFPDLHSELNLSSLELGDSALYFCASSVGGGLGTEAFFGQGTRLTVV
binding result [1]: recognises

B4: i7E6, TRA of SEQ ID NO: 139 (TCR, V domains shown)
Valpha: KQEVTQIPAALSVPEGENLVLNCSFTDSAIYNLQWFRQDPGKGLTSLLLIQSSQREQTSGRLNASLDKSSGRSTLYIAASQPGDSATYLCAVKRRAAGNKLTFGGGTRVLVKP
Vbeta: B3 Vbeta with V95P, L99A, G100S, T101S, E102P, A103L, F104H, Q107N, V114T
binding result [1]: recognises

B5: i6E9 (TCR, V domains shown)
Valpha: RKEVEQDPGPFNVPEGATVAFNCTYSNSASQSFFWYRQDCRKEPKLLMSVYSSGNEDGRFTAQLNRASQYISLLIRDSKLSDSATYLCVVNLGNYGQNFVFGPGTRLSVLP
Vbeta: B3 Vbeta with G100S, T101N, A103Q, Q107P, V114L
binding result [1]: recognises

B6: il2G6, TRA of SEQ ID NO: 129 (TCR, V domains shown)
Valpha: LAKTTQPISMDSYEGQEVNITCSHNNIATNDYITWYQQFPSQGPRFIIQGYKTKVTNEVASLFIPADRKSSTLSLPRVSLSDTAVYYCLVGHSGNTPLVFGKGTRLSVIA
Vbeta: B3 Vbeta with L99A, T101N, E102T, A103I, F104Y, Q107E, T109S, R110W
binding result [1]: recognises

B7: eC7 (TCR, V domains shown)
Valpha: SQQGEEDPQALSIQEGENATMNCSYKTSINNLQWYRQNSGRGLVHLILIRSNEREKHSGRLRVTLDTSKKSSSLLITASRAADTASYFCAVRYSSASKIIFGSGTRLSIRP
Vbeta: B3 Vbeta with V95A, L99S, G100N, T101N, A103Q, Q107P, V114L
binding result [1]: recognises

B8: i7E6, TRA of SEQ ID NO: 138 (TCR, V domains shown)
Valpha: AQRVTQPEKLLSVFKGAPVELKCNYSYSGSPELFWYVQYSRQRLQLLLRHISRESIKGFTADLNKGETSFHLKKPFAQEEDSAMYYCALANQAGTALIFGKGTTLSVSS
Vbeta: B3 Vbeta with V95P, L99A, G100S, T101S, E102P, A103L, F104H, Q107N, V114T
binding result [1]: recognises

B9: eC1 (TCR, V domains shown)
Valpha: GESVGLHLPTLSVQEGDNSIINCAYSNSASDYFIWYKQESGKGPQFIIDIRSNMDKRQGQRVTVLLNKTVKHLSLQIAATQPGDSAVYFCAGRTGFQKLVFGTGTRLLVSP
Vbeta: B3 Vbeta with G100Y, T101N, A103Q, Q107P, V114L
binding result [1]: recognises

B10: il2G6, TRA of SEQ ID NO: 130 (TCR, V domains shown)
Valpha: RKEVEQDPGPFNVPEGATVAFNCTYSNSASQSFFWYRQDCRKEPKLLMSVYSSGNEDGRFTAQLNRASQYISLLIRDSKLSDSATYLCVVNTGRRALTFGSGTRLQVQP
Vbeta: B3 Vbeta with L99A, T101N, E102T, A103I, F104Y, Q107E, T109S, R110W
binding result [1]: recognises

B11: e1D8 (TCR, V domains shown)
Valpha: GEDVEQSLFLSVREGDSSVINCTYTDSSSTYLYWYKQEPGAGLQLLTYIFSNMDMKQDQRLTVLLNKKDKHLSLRIADTQTGDSAIYFCAENHSSASKIIFGSGTRLSIRP
Vbeta: B3 Vbeta with G97S, L99R, G100N, T101Y, A103Q, F104Y, Q107P, V114T
binding result [3]: recognises

B12: ⑧2D9 (TCR, V domains shown)
Valpha: QKEVEQNSGPLSVPEGAIASLNCTYSDRGSQSFFWYRQYSGKSPELIMFIYSNGDKEDGRFTAQLNKASQYVSLLIRDSQPSDSATYLCAVNMDGNNRLAFGKGNQVVVIP
Vbeta: DAGITQSPRHKVTETGTPVTLRCHQTENHRYMYWYRQDPGHGLRLIHYSYGVKDTDKGEVSDGYSVSRSKTEDFLLTLESATSSQTSVYFCASVYGSEAFFGQGTRLTVV
binding result [4]: recognises

B13: eD3 (TCR, V domains shown)
Valpha: RKEVEQDPGPFNVPEGATVAFNCTYSNSASQSFFWYRQDCRKEPKLLMSVYSSGNEDGRFTAQLNRASQYISLLIRDSKLSDSATYLCVVKGGNNFNKFYFGSGTKLNVKP
Vbeta: NAGVTQTPKFQVLKTGQSMTLQCAQDMNHNSMYWYRQDPGMGLRLIYYSASEGTTDKGEVPNGYNVSRLNKREFSLRLESAAPSQTSVYFCASSHRVNSNQPQHFGDGTRLSIL
binding result [1]: recognises

B14: i2B7 (TCR, V domains shown)
Valpha: AQSVAQPEDQVNVAEGNPLTVKCTYSVSGNPYLFWYVQYPNRGLQFLLKYITGDNLVKGSYGFEAEFNKSQTSFHLKKPSALVSDSALYFCAVNPTGGGNKLTFGTGTQLKVEL
Vbeta: DARVTQTPRDKVTEMGQEVTMRCQPILGHNTVFWYRQTMMQGLELLAYFRNRAPLDDSGMPKDRFSAEMPDATLATLKIQPSEPRDSAVYFCASGLGGNQPQHFGDGTRLSIL
binding result [4]: recognises

Now from value to binder:

binding result [1]: recognises
B15: i2F3 (TCR, V domains shown)
Valpha: RKEVEQDPGPFNVPEGATVAFNCTYSNSASQSFFWYRQDCRKEPKLLMSVYSSGNEDGRFTAQLNRASQYISLLIRDSKLSDSATYLCVVNKSWGKLQFGAGTQVVVTP
Vbeta: DSGVTQTPKHLITATGQRVTLRCSPRSGDLSVYWYQQSLDQGLQFLIQYYNGEERAKGNILERFSAQQFPDLHSELNLSSLELGDSALYFCASSAGTSGNEQFFGPGTRLTVL

binding result [2]: recognises
B16: F5 (TCR, V domains shown)
Valpha: KDQVFQPSTVASSEGAVVEIFCNHSVSNAYNFFWYLHFPGCAPRLLVKGSKPSQQGRYNMTYERFSSSLLILQVREADAAVYYCAVNQAGTALIFGKGTTLSVSS
Vbeta: DTEVTQTPKHLVMGMTNKKSLKCEQHMGHRAMYWYKQKAKKPPELMFVYSYEKLSINESVPSRFSPECPNSSLLNLHLHALQPEDSALYLCASSQERTSGRSADTQYFGPGTRLTVL

binding result [2]: recognises
B17: 1F5 (TCR, V domains shown)
Valpha: EDQVTQSPEALRLQEGESSSLNCSYTVSGLRGLFWYRQDPGKGPEFLFTLYSAGEEKEKERLKATLTKKESFLHITAPKPEDSATYLCAASNSGGSNYKLTFGKGTLLTVNP
Vbeta: DSGVTQTPKHLITATGQRVTLRCSPRSGDLSVYWYQQSLDQGLQFLIQYYNGEERAKGNILERFSAQQFPDLHSELNLSSLELGDSALYFCASSVDGKGTQYFGPGTRLLVL

binding result [2]: recognises
B18: (21)1D5 (TCR, V domains shown)
Valpha: QKEVEQDPGPLSVPEGAIVSLNCTYSNSAFQYFMWYRQYSRKGPELLMYTYSSGNKEDGRFTAQVDKSSKYISLFIRDSQPSDSATYLCAMSGHFNKFYFGSGTKLNVKP
Vbeta: KAGVTQTPRYLIKTRGQQVTLSCSPISGHRSVSWYQQTPGQGLQFLFEYFSETQRNKGNFPGRFSGRQFSNSRSEMNVSTLELGDSALYLCASSLRAGELFFGEGSRLTVL

binding result [5]: recognises
B19: Clone 4, 7, 34 (Table 10) (TCR, V domains shown)
Valpha: GEQVEQRPPHLSVREGDSAFIICTYTDSATAYFYWYKQEPGAGLQLLMSVFSNVDRKEEQGLTVLLNKKDKRLSLNLTAAHPGDSAVYFCAVGNSNNRIFFGDGTQLVVKP
Vbeta: NTKITQSPRYLILGRANKSLECEQHLGHNAMYWYKQSAEKPPELMFLYNLKQLIRNETVPSRFIPECPDSSKLLLHISAVDPEDSAVYFCASSQLGSSAETLYFGSGTRLTVL

binding result [1]: recognises
B20: G9 (TCR, V domains shown)
Valpha: KQEVTQIPAALSVPEGENLVLNCSFTDSAIYNLQWFRQDPGKGLTSLLLIQSSQREQTSGRLNASLDKSSGRSTLYIAASQPGDSATYLCAVTRRALTFGSGTRLQVQP
Vbeta: KAGVTQTPRYLIKTRGQQVTLSCSPISGHRSVSWYQQTPGQGLQFLFEYFSETQRNKGNFPGRFSGRQFSNSRSEMNVSTLELGDSALYLCASSVTSGRTHTDTQYFGPGTRLTVL

binding result [4]: recognises
B21: 52B11 (TCR, V domains shown)
Valpha: QKEVEQDPGPLSVPEGAIVSLNCTYSNSAFQYFMWYRQYSRKGPELLMYTYSSGNKEDGRFTAQVDKSSKYISLFIRDSQPSDSATYLCAQRIVMEYGNKLVFGAGTILRVKS
Vbeta: EPEVTQTPSHQVTQMGQEVILRCVPISNHLYFYWYRQILGQKVEFLVSFYNNEISEKSEIFDDQFSVERPDGSNFTLKIRSTKLEDSAMYFCASSEGAEAFFGQGTRLTVV

binding result [4]: recognises
B22: ⑨5C6 (TCR, V domains shown)
Valpha: AQSVTQPDIHITVSEGASLELRCNYSYGATPYLFWYVQSPGQGLQLLLKYFSGDTLVQGIKGFEAEFKRSQSSFNLRKPSVHWSDAAEYFCAVGSPSGYSTLTFGKGTMLLVSP
Vbeta: EAQVTQNPRYLITVTGKKLTVTCSQNMNHEYMSWYRQDPGLGLRQIYYSMNVEVTDKGDVPEGYKVSRKEKRNFPLILESPSPNQTSLYFCASSPTRFYEQYFGPGTRLTVT

Reference: patent US20250339504A1 (published 2025)
